The values below are quoted from earlier work in paper PMC4643947.

The target in data set [1] is p62 (Homo sapiens) (UniProt Q13501).
Data set [2] concerns the target Nrf2 10mer peptide (Homo sapiens).
The target of data set [3] is p62 (Homo sapiens) (UniProt Q13501). This is another data set of the same source.
In data set [4] the target is Nrf2 14mer peptide (Homo sapiens).

Like-named read-outs stand apart in the source and are kept apart here.

Broadly, the Kd is the constant that tells how readily two partners part at equilibrium. With Keap1 (from UniProt Q14145), the Kd with p62 (Homo sapiens) [1] is 118 nM; in data set [2], 30.1 nM; with p62 (Homo sapiens) [3], 2000 nM; in data set [4] it was 61.9 nM.
